One experiment deals with T1, FcγRIIa H (human, UniProt P12318 34-217).
T1 construct: extracellular domain; Soluble extracellular domain with C-terminal His tag, expressed in FreeStyle293 cells; also called FcgRIIa H; 2aH; not shown: C-terminal His tag
T1 sequence (looked up): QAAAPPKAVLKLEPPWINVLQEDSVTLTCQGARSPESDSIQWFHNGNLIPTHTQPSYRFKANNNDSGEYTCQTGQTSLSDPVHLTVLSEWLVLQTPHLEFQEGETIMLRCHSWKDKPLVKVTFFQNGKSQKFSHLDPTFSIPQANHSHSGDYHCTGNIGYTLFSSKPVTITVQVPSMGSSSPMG
The experiment can be described thus: SPR (Biacore), antibody captured, FcγR as analyte; relative to HeCon Ab. As to the method: (§1) The heterodimerized antibodies He Abs in which one of the H chains was introduced with an alteration were assayed for their binding activities to each activating FcγR and inhibitory FcγR according to the method described in Example 4. […] The activating FcγRs in FIGS. 26, 27, 28, and 29 are FcγRIa, FcγRIIa (R), FcγRIIa (H), and FcγRIIIa, respectively.
(§2) Analysis of interaction between objective antibody and the FcγR was carried out using Biacore T100 (GE Healthcare). HBS-EP+ (GE Healthcare) was used as the running buffer, and the measurement temperature was set to 25° C. Chips produced by immobilizing the antigen peptide by the amine coupling method to a Series S Sencor Chip CM5 (GE Healthcare), or alternatively, chips produced by allowing preliminarily biotinylated antigen peptides to interact with and immobilize onto a Series S Sensor Chip SA (certified) (GE Healthcare) were used. Antibodies of interest were captured onto an antigen peptide-immobilized chip, and allowed to interact to each FcγR diluted with running buffer. To regenerate and repeatedly use the chip, the antibodies captured on the chip were washed off by reacting 10 mM glycine-HCl, pH 1.5.

For the next experiment, the target named is T2, FcγRIIb (human, UniProt P31994 43-217).
T2 construct: extracellular domain; Soluble extracellular domain with C-terminal His tag, expressed in FreeStyle293 cells; also called FcgRIIb; 2b; not shown: C-terminal His tag
T2 sequence (looked up): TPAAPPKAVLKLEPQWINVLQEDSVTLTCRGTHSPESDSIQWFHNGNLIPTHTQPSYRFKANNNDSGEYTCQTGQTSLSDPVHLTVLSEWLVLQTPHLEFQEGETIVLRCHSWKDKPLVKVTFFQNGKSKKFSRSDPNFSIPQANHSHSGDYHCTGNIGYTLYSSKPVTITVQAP
The experiment is described as above. As to the method: as §1, §2

B1: GpH7-A5/GpH7-B3 variant P238_15Y/GpL16-k0 (antibody, human IgG1, kappa)
heavy 1: not shown
heavy 2: not shown
light: DIVMTQSPLSLPVTPGEPASISCQASESLVHSNRNTYLHWYLQKPGQSPQLLIYKVSNRFSGVPDRFSGSGSGTDFTLKISRVEAEDVGVYYCSQNTHVPPTFGQGTKVEIERTVAAPSVFIFPPSDEQLKSGTASVVCLLNNFYPREAKVQWKVDNALQSGNSQESVTEQDSKDSTYSLSSTLTLSKADYEKHKVYACEVTHQGLSSPVTKSFNRGEC
notes: Heterodimerized anti-glypican-3 IgG1; alteration in the GpH7-B3 chain only; also called He Ab
For the molecule B1, the He/Con_2aH with FcγRIIa H is 59.8 % of GpH7-A5/GpH7-B3/GpL16-k0 (=100). Further, in the experiment with FcγRIIb, the He/Con_2b is 218 % of GpH7-A5/GpH7-B3/GpL16-k0 (=100).

B2: GpH7-A5/GpH7-B3 variant G237_02A/GpL16-k0 (antibody, human IgG1, kappa)
heavy 1: not shown
heavy 2: not shown
light: B1 light
notes: as for B1
Regarding B2, the He/Con_2aH with FcγRIIa H is 34 % of GpH7-A5/GpH7-B3/GpL16-k0 (=100). Further, the He/Con_2b with FcγRIIb is 124 % of GpH7-A5/GpH7-B3/GpL16-k0 (=100).

B3: GpH7-A5/GpH7-B3 variant S239_01G/GpL16-k0 (antibody, human IgG1, kappa)
heavy 1: not shown
heavy 2: not shown
light: B1 light
notes: as for B1
Turning to B3, the He/Con_2aH with FcγRIIa H was 97 % of GpH7-A5/GpH7-B3/GpL16-k0 (=100). In addition, the He/Con_2b with FcγRIIb was 144 % of GpH7-A5/GpH7-B3/GpL16-k0 (=100).

B4: GpH7-A5/GpH7-B3 variant S239_07I/GpL16-k0 (antibody, human IgG1, kappa)
heavy 1: not shown
heavy 2: not shown
light: B1 light
notes: as for B1
Regarding B4, the He/Con_2aH with FcγRIIa H is 91.5 % of GpH7-A5/GpH7-B3/GpL16-k0 (=100). Moreover, the He/Con_2b with FcγRIIb was 107 % of GpH7-A5/GpH7-B3/GpL16-k0 (=100).

B5: GpH7-A5/GpH7-B3 variant P238_09D/GpL16-k0 (antibody, human IgG1, kappa)
heavy 1: not shown
heavy 2: not shown
light: B1 light
notes: as for B1
For B5, the He/Con_2aH with FcγRIIa H is 87.5 % of GpH7-A5/GpH7-B3/GpL16-k0 (=100). In the experiment with FcγRIIb, the He/Con_2b was 221 % of GpH7-A5/GpH7-B3/GpL16-k0 (=100).

B6: GpH7-A5/GpH7-B3 variant P238_10E/GpL16-k0 (antibody, human IgG1, kappa)
heavy 1: not shown
heavy 2: not shown
light: B1 light
notes: as for B1
B6: the He/Con_2aH in the experiment with FcγRIIa H was 77.1 % of GpH7-A5/GpH7-B3/GpL16-k0 (=100). In the experiment with FcγRIIb, the He/Con_2b is 232 % of GpH7-A5/GpH7-B3/GpL16-k0 (=100).

B7: GpH7-A5/GpH7-B3 variant G237_04F/GpL16-k0 (antibody, human IgG1, kappa)
heavy 1: not shown
heavy 2: not shown
light: B1 light
notes: as for B1
For the molecule B7, the He/Con_2aH in the experiment with FcγRIIa H was 41.4 % of GpH7-A5/GpH7-B3/GpL16-k0 (=100). In addition, the He/Con_2b with FcγRIIb was 149 % of GpH7-A5/GpH7-B3/GpL16-k0 (=100).

B8: GpH7-A5/GpH7-B3 variant S239_03V/GpL16-k0 (antibody, human IgG1, kappa)
heavy 1: not shown
heavy 2: not shown
light: B1 light
notes: as for B1
With B8, the He/Con_2aH in the experiment with FcγRIIa H is 91 % of GpH7-A5/GpH7-B3/GpL16-k0 (=100). Further, the He/Con_2b with FcγRIIb is 108 % of GpH7-A5/GpH7-B3/GpL16-k0 (=100).

B9: GpH7-A5/GpH7-B3 variant S267_08L/GpL16-k0 (antibody, human IgG1, kappa)
heavy 1: not shown
heavy 2: not shown
light: B1 light
notes: as for B1
With B9, the He/Con_2aH in the experiment with FcγRIIa H was 29 % of GpH7-A5/GpH7-B3/GpL16-k0 (=100). For the same molecule, the He/Con_2b with FcγRIIb was 109 % of GpH7-A5/GpH7-B3/GpL16-k0 (=100).

B10: GpH7-A5/GpH7-B3 variant P238_07I/GpL16-k0 (antibody, human IgG1, kappa)
heavy 1: not shown
heavy 2: not shown
light: B1 light
notes: as for B1
As for B10, the He/Con_2aH in the experiment with FcγRIIa H is 57.6 % of GpH7-A5/GpH7-B3/GpL16-k0 (=100). The He/Con_2b with FcγRIIb was 80 % of GpH7-A5/GpH7-B3/GpL16-k0 (=100).

B11: GpH7-A5/GpH7-B3 variant S239_05P/GpL16-k0 (antibody, human IgG1, kappa)
heavy 1: not shown
heavy 2: not shown
light: B1 light
notes: as for B1
As for B11, the He/Con_2aH with FcγRIIa H is 33.3 % of GpH7-A5/GpH7-B3/GpL16-k0 (=100). Besides, in the experiment with FcγRIIb, the He/Con_2b was 102 % of GpH7-A5/GpH7-B3/GpL16-k0 (=100).

B12: GpH7-A5/GpH7-B3 variant L234_10E/GpL16-k0 (antibody, human IgG1, kappa)
heavy 1: not shown
heavy 2: not shown
light: B1 light
notes: as for B1
Take B12: the He/Con_2aH with FcγRIIa H was 88.3 % of GpH7-A5/GpH7-B3/GpL16-k0 (=100). For the same molecule, the He/Con_2b with FcγRIIb was 118 % of GpH7-A5/GpH7-B3/GpL16-k0 (=100).

B13: GpH7-A5/GpH7-B3 variant S267_06M/GpL16-k0 (antibody, human IgG1, kappa)
heavy 1: not shown
heavy 2: not shown
light: B1 light
notes: as for B1
For B13, the He/Con_2aH with FcγRIIa H is 34.3 % of GpH7-A5/GpH7-B3/GpL16-k0 (=100). Also, the He/Con_2b in the experiment with FcγRIIb is 210 % of GpH7-A5/GpH7-B3/GpL16-k0 (=100).

B14: GpH7-A5/GpH7-B3 variant G237_13S/GpL16-k0 (antibody, human IgG1, kappa)
heavy 1: not shown
heavy 2: not shown
light: B1 light
notes: as for B1
Take B14: the He/Con_2aH in the experiment with FcγRIIa H is 29.8 % of GpH7-A5/GpH7-B3/GpL16-k0 (=100). For the same molecule, the He/Con_2b with FcγRIIb is 111 % of GpH7-A5/GpH7-B3/GpL16-k0 (=100).

B15: GpH7-A5/GpH7-B3 variant G237_03V/GpL16-k0 (antibody, human IgG1, kappa)
heavy 1: not shown
heavy 2: not shown
light: B1 light
notes: as for B1
As for B15, in the experiment with FcγRIIa H, the He/Con_2aH is 39.4 % of GpH7-A5/GpH7-B3/GpL16-k0 (=100). In the experiment with FcγRIIb, the He/Con_2b is 61.4 % of GpH7-A5/GpH7-B3/GpL16-k0 (=100).

B16: GpH7-A5/GpH7-B3 variant P238_16H/GpL16-k0 (antibody, human IgG1, kappa)
heavy 1: not shown
heavy 2: not shown
light: B1 light
notes: as for B1
Regarding B16, in the experiment with FcγRIIa H, the He/Con_2aH was 45.9 % of GpH7-A5/GpH7-B3/GpL16-k0 (=100). Also, the He/Con_2b in the experiment with FcγRIIb is 115 % of GpH7-A5/GpH7-B3/GpL16-k0 (=100).

B17: GpH7-A5/GpH7-B3 variant G237_18N/GpL16-k0 (antibody, human IgG1, kappa)
heavy 1: not shown
heavy 2: not shown
light: B1 light
notes: as for B1
For B17, the He/Con_2aH with FcγRIIa H was 15.2 % of GpH7-A5/GpH7-B3/GpL16-k0 (=100). Also, the He/Con_2b with FcγRIIb was 180 % of GpH7-A5/GpH7-B3/GpL16-k0 (=100).

(Values after patent publication US20180155451A1 (published 2018).)
